For 23 sequences, protein production results are on record in a protein production outcome set (Wang et al. 2014).
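Also: failed if final PepcDB status was selected cloned or expressed and not failed if soluble or beyond.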

A short description of the data set: label from the status in PepcDB records.
“MTIPTISELKKDRIIPHVFPNDKIDLNVDLFISFKAGKEVNHGNVLDIAGTGSVPRNIKFSEEPPDGYCFVLFMVDPDYPSRLRPDGKEYIHWVVSGIKTKELIKGTQKNCVTILPYVGPSIKKGTGLHRISFIISLIKEEDKDNITGLPHYKGEKYITRVKFNNYESVHNIAQINNMKIVGYNWCQIEG”: the protein production result was “failed”.
“MEKPDIQRLTNFLIVYTKTLLGAGTYTARVAKCVGRIAEVYGYEININFFFHHITLNVVDMDDNSIQRTYVIPNHHAHVNFKLIFDLSALSWAIYDHKYDLEKAKVVFEQISQQKKHSYLLNLLFVSMANSAFCRLFGGDFGAGNLVFFATFVGLLLRYILTKAKIDLRIQYILCSFISSWFVFFGLDMGYTNTSDVALGSSILYLIPGVFFINSVIDILKDHILMGLSRIISVAILICCIALGIYMTLSISDFGILR”: the protein production result is “failed”.
As for “MAFAEGALDALKVAFQEGARSLVLLSPVLFRDALLSARLGALRFGLERGGVEGFARVGRALFFGALSAGSEEVYEAWKEGLSEAGLWRWLGRLEALADERRWLRGTAARVLVVQGALDAFTPPLHGAKVADFAKGEALRFVVDEAGHLVPWEAQEEVRDLVADFLLGEGFRPLPGGLAL”, the protein production entry is on record as “failed”.
“MIPLMHDFEGETVLVVGGGSVGARKARTFATEASVVVLSPEFGDRTFADAEKVRAAPTPEDATDWVERTDPALVVAATDDSDLNGAFSTAAAEHGALVNRTDDHGDQSFGNIVVPATVRDDPVTLAIATGGRAPALSKHLRERFEDEFGNAGLMADLVGDLREDLRDRGVPPAKRRDAVRFVVRSREVWKALDSGRSKGEQVARDVIGELPGDQT”: the protein production result is on record as “not failed”.
With “GMTTRVLALDALVPIVAADNPVPRVSTPDLARALSGEISNWKELGGPDMPLVLHALARDISLEAALEARLGRPIAAEITHPDLASLAAAVARDPYALAITGQTARGAARVLPLTDSCGFPLVPSPLAVKSED”, the protein production entry was “failed”.
Regarding “MADTHPLVTVETIVLVGLGGFAGSNLRYFVGLFFPGLQGTLLVNVCGSFALGVLVYEGLQVGALASETKLAASTGFISSFTTYSTFAVETVLTPEWAVANVVGSYALGFAGVLVGREVVRLFAGGGQ”, the protein production entry is given as “failed”.
As to “AQAALEASEEKFAKAFHSSPDSITITEIESGRYVEVNDGFCRLTGFSAREVLGRTAHEIGIWTDTVQREFMIDELRQKGRMHHREMNGRDKKGAPLVLDVSVEFITLNNTACLLMNARDIG”, the protein production entry is given as “failed”.
Take “APEWTEEDLSQLTRSMVKFPGGTPGRWEKIAHELGRSVTDVTTKAKQLKDSVTCSPGMV”: the protein production result is on record as “not failed”.
As for “MTAGGPLITAALTAYDAEDTIAGALASALAQDWPSLEVLILDDASRDGTRKVIEAVITERGDQGPPIRLIALDKNGGVAQARNRLLAEAKGEVIAFFDDDDISAPDRLRRQYARLIAAERETGAGLVFCHAARCQILPDGGERLEGTMGEEGGPIPGGDAVVRRILLGTLSPGVRGSCATCSQMARTASYRALGGFDPTLRRAEDTDLCLRAALGGAVFAGLSAPLVTQRLTLGGDKTPREDHRAYQALLNKHRATLAKTGWLTFYARWQDIRLAHLEGRTGRVVLGLVGLGLSHPLKLARKIVWSLPAAGTRAAYHRQHRKDTS”, the protein production result is “failed”.
On to “KNVNRVLSAEALKPGMLLTGTVSSLEDHGYLVDIGVDGTRAFLPLLKAQEYIRQKNKGAKLKVGQYLNCIVEKVKGNGGVVSLSVGHSEVSTAIATEQQSWNLNNL”, for which the protein production result is “not failed”.
Next, “MQSYFSPLLDAMHAWLMLQLPGPVAGALLGGLHALVFIPLAALAWRVLSNESRRAQWVPLFALAGMCSAVFLSELGNTMGDTASAIPVLAALAVVLLAQFRARNGLHVVHLWAVAGALIGLAVALKLTNALYALALVPAVLCDGGRLRSRVLALSVLAGVALLVLLLVAGPWYWQVWQHLGNPLFPQFNGVFKSPLAQPVSIADVRWLPRTIGEQLIWPLLFTLKPQRIGDLGLVQAGWAVLYGVVAIAAGRALVRRPVRAAAVDRAAIVLLVFFGVAYALWQAIFSIHRYLVVLELLAPLVLWIVCRHAFAARANRKAAWLIGACALVAVVGWKDWGHESWARESFQVEQPVLGNPAASSVLLVGDEPQSWRVPLLPSQARYIGVATNISETDHYRQRVRALIAERPQLYAMLGAARDKQQVRIDRMNRLAQQFGWERQPGCSRLRWLVARGLRAELDTSQPDRCVLAIPKGKALDIAAADQAVREAAQQRLAAYGLTLDPARCRTLSSQVGQAVYPYQFCQLALPN”: “failed”; “MDSIQESDVLNAVKTKLPPCCLRIFRNKIILVGTYDLDKSTGYRSGSLDVFTMDLKLLCSNNTYGAILDLKLSPFDDTLICTAHSTGNIMLWRIRCTDKDDFQSNELDIHAIANLQLFEKDVLIASCHFSPLDCKKLLVTNTAGEAATIDIRTLSVQFTASAIAQAYSKLDKIDYEVQGATEKVIHVESGQFLKPHELECWTAEFGSLQPFQDVVFTGGDDSRIMAHDLRSKEFIWSNNRIHDAGVVSIKCSQPNFRNNKPTSIITGSYDDNIRSLDLRMMGESIFPGANVPTVNKLACDLGGGVWRFVESPIDQEQSHHNGSDRLLVCCMYNGAKVVTMNDNSDEYFQIQHYLKKGHDSMCYGGDWSNSLIATCSFYDNSLQTWIV”: “failed”.
As for “NGKLFLVGTPIGNLKDITLRALETLQNCDVIAAEDTRQSLKLLNHFDIKKPLISYHKFNENNRSSELMDMVREGKKVALVTDAGMPGISDPGSVIVEKFIENNLEFEVIPG”, the protein production result is “not failed”.
Turning to “MSLSAKSSLKEVAELAGVGYATASRALSGKGYVSPQTREKVQAAAKELNYVPNQLAKALREHRSALVGVIVPDLSNEYYSESLQTIQQDLKAAGYQMLVAEANSVQAQDVVMESLISIQAAGIIHVPVVGSIAPEGIPMVQLTRGELGPGFPRVLCDDEAGFFQLTESVLGGSGMNIAALVGEESLSTTQERMRGISHAASIYGAEVTFHFGHYSVESGEEMAQVVFNNGLPDALIVASPRLMAGVMRAFTRLNVRVPHDVVIGGYDDPEWYSFVGAGITTFVPPHEEMGKEAVRLLVDLIENPELPTGDVVLQGQVILRGSSTHEGHHHHHH”, the protein production entry was “not failed”.
Turning to “MLELFLKEEWTTEAKEILRPFGQKKLIGIQMGASNRSRQWFVERWIELAKRIIERDEEVVIVFVGSKNELEEISLVAQALPQDRVFISAGRLSLGAAAALIGELGLLFTPDTGPLHIAVALRVKTISLFAVANPKNSLPDYDQSLHRYIKVDRCCEPCVGKRCAYQKCMEAIGVDEVYEEYKKLQELEHHHHHH”, the protein production result is given as “not failed”.
With “MRHGEIARAARSAVPRRARAALPLACAALVAAGLAARAAGAAAPPPAPPAAAPARVLSAAVKGPITGGTVEYLEAALARARTGGFAALVVTLDTPGGQLDATREIVQAMLATEVPVIVWVGPAGARAGSAGVFLTLAADVAAMHPTSNIGAAHPVTGAGKDVAEEAGKDMAKKVENDTAAFARSVAAARGRNADWAEKAVRESVSVTAEEALRLKVADLTAADLPELLAKADGRKVGQGAAARPLKVAGAAIEPYEPTVRQRLLGFLADPNVMAILMLVGMLGIAVEFYHPGMIFPGAVGGFCLFLAFLAMRVIPVNVGAVILLLAGVGLLVAEAYVTAHGLAGLAGAACLVLGTLFFVNTSAPGDWFDPGALRLSPWVIWPTPAALALLLAFMAWNVARVRRAPLQLGAPALVGAPGEALSEIGPAAGEAFVHGEYWQARSAAPIPRGAAVRVVAVEGLTVTVVAAGPGNG”, the protein production result is listed as “failed”.
Regarding “MSLIYAQILAGGKGTRMGNVSMPKQFLPLNGKPIIVHTVEKFILNTRFDKILISSPKEWMNHAEDNIKKYISDDRIVVIEGGEDRNETIMNGIRFVEKTYGLTDDDIIVTHDAVRPFLTHRIIEENIDAALETGAVDTVIEALDTIVESSNHEVITDIPVRDHMYQGQTPQSFNMKKVFNHYQNLTPEKKQILTDACKICLLAGDDVKLVKGEIFNIKITTPYDLKVANAIIQERIANEGHHHHHH”, the protein production entry is on record as “not failed”.
“MQEGNFKAGTYSAARQGIGGDVTVTLDIDAQGKVLKSTIDALEETPEVGGEAAIELAKTMTEKQSIQVDGVSGATMTSGAVHEAAEDAYSQAKANLEHHHHHH”: the protein production entry is on record as “not failed”.
In the case of “MILIRNVRLVDARGERGPADVLIGEGRILSLEGGEAKQVVDGTGCFLAPGFLDLHAHLREPGEEVKEDLFSGLLAAVRGGYTDLVSMPNTKPPVDTPEAVRALKEKAKALGLARLHPAAALTEKQEGKTLTPAGLLREAGAVLLTDDGRTNEDAGVLAAGLLMAAPLGLPVAVHAEDAGLRRNGVMNDGPLADLLGLPGNPPEAEAARIARDLEVLRYALRRSPATPRLHVQHLSTKRGLELVREAKRAGLPVTAEATPHHLTLTEEALRTFDPLFKVAPPLRGEEDREALLEGLLDGTLDAIATDHAPHTLAEKEKDLLRAPFGIPSLEVAFPLLYTELHLKRGFPLQRLVELFTDGPRRVLGLPPLHLEEGAEASLVLLSPKERPVDPSAFASKARYSPWAGWVLGGWPVLTLVAGRIVHEALK”, the protein production result was “not failed”.
Consider “MPNNHDVNPYGIAFVPAGLPAGSALQAGDVVVSNFNAASNKQGTGTTIVKLVTDGKPVTFFQGQNLGLTTALAVLKSGYVLVGNLPTTNGATITSTGSLLVITPQGKLLSELKDPTLLDGPWDMTVIIDNGQQVTAFVSNVLNGTVARIDLNIGPNGATLLQSSHLIASGYAHRPDPAALVVGPTGLAYDAAHDMLYVASTNDNKVFAIAGAAALAHDNGPGSVIYQDSNHLRGPLALALAPNGDLVTANGDAINPDPNQSSEIVEFTPDGRFVAQMQVDPAPGSAFGLAFGLSSSGQPQFAAVNDSTNTAIVWTLRPVGGN”, for which the protein production result is “failed”.
In the case of “MVSIIIPIYNVQDYINDCLYSVYTQTYSEIEVILVNDCTPDNSMLIAHSNIEKLKKRFNVKIIDHKSNKGLSAARNSGVKEATGEWVYFLDSDDEITPDCIECFVRLAERYLSVDFIVGGIRVIGRNISYRLTTSEYVIGNDNILKCYISGMWYEMAWNKLIRKEYFVSNNLWFKEGLLHEDQLFSYQLATTALTMATVNKPTYIYKMRMSGAITSSNGRKNFDSFICILEYMVYSVMQKYSTSSVTLEYAQIIRFSYSILLSLYGKHNLTEMEVVNYELKVDRICRIVTFYKCKLPVPIQIKLTIIKLPQTMRKVLLKWHNKKIQKKLEHHHHHH”, the protein production entry is reported as “not failed”.
As for “MDNANCVGGCKFETRSFQYRRRIPYSLGADPLPPVHPLSLKNLVDIDTDLISSQLYELYDSIILNDSGLERRYAFVQKLEQILKKEFPYKNIKTSLFGSTQSLLASNASDIDLCIITDPPQCAPTTCEVSAAFARNGLKKVVCISTAKVPIVKVWDSELQLSCDCNINKTISTLNTRLMRSYVLCDPRVRPLIVMIKYWAKRRCLNDAAEGGTLTSYTISCMVINFLQKRDPPILPSLQMLPHLQDSSTMTDGLDVSFFDDPDLVHGFGDKNEESLGILFVEFFRFFGYLFDYEHFVLSIRHGTFLSKRAKGWQFQLNNFLCVEEPFHTSRNLANTADEITMKGIQLEFRRVFRLLAYNCNVDDACSQFTFPSLTDTSFMDDYVNELQLEIVPGFSHGRDSSDTSCTESPPEPSHFAWAFDPYNATASPYYNQNINSSIDYSSIYSNDVPAIPPNVPYTFVDPYTYACYINNNSYLPPSYMDFYTWYNSPYPKSSHHFDERHGGDRHEKNLSNSRRYSRNKFHKKKQSSGPFQYYPDAFSFTPTDNNSPPSNSSSSEVVSPVSLHSEPVLSTVQAFKS”, the protein production entry was “failed”.
Next, “MAEARRDGRLPLTLVGGFLGAGKSTWLRHQLHAGRFARHHLLVNEAAETPVDNLLLGGAARLTLLAGGCACCEGQAQLRAALRAICETESGPEAGGIEGILLETSGLADPGAIAAMVAADPVLVRRLALAETLVLVDAAHGTAQLAAEPLARAQIEAAGRLVLTKPAAAPDLARLAATLRALAPEAELSAAERGVPVPLPAGAAEPYPLPPLAAAAPIRPHRLRIGAEGGWVALSTWLSALLQARGEDVVRVKGVVRTPAGRLLLQSVRRMVQPPETLPEGADLPGPAPPPRRERSC”: “failed”.
